Drawing on ChEMBL document CHEMBL1138864, “Synthesis of novel caspase inhibitors for characterization of the active caspase proteome in vitro and in vivo” (J Med Chem, 2006), this text covers Km for eight proteins.

A word on the Km: it is the concentration of substrate that gives half-maximal velocity.

Holding throughout (conditions): Homo sapiens
Substrate in data set [1]: Cc1cccc(C)c1C(=O)OCC(=O)[C@H](CC(=O)O)NC(=O)[C@H](CCCCNC(=O)CCCCCNC(=O)CCCCC1SC[C@@H]2NC(=O)N[C@H]12)NC(=O)[C@H](CCC(=O)O)NC(=O)OCc1ccccc1
Description: Inhibition of human caspase 7
Substrate in data set [2]: Cc1cccc(C)c1C(=O)OCC(=O)[C@H](CC(=O)O)NC(=O)[C@H](CCCCNC(=O)CCCCCNC(=O)CCCCC1SC[C@@H]2NC(=O)N[C@H]12)NC(=O)[C@H](CCC(=O)O)NC(=O)OCc1ccccc1
The source holds these as a separate data set.
Description: Inhibition of human caspase 6

Substrate in data set [3]: Cc1cccc(C)c1C(=O)OCC(=O)[C@H](CC(=O)O)NC(=O)[C@H](CCCCNC(=O)CCCCCNC(=O)CCCCC1SC[C@@H]2NC(=O)N[C@H]12)NC(=O)[C@H](CCC(=O)O)NC(=O)OCc1ccccc1
The source holds these as a separate data set.
Description: Inhibition of human caspase 1

Substrate in data set [4]: Cc1cccc(C)c1C(=O)OCC(=O)[C@H](CC(=O)O)NC(=O)[C@H](CCCCNC(=O)CCCCCNC(=O)CCCCC1SC[C@@H]2NC(=O)N[C@H]12)NC(=O)[C@H](CCC(=O)O)NC(=O)OCc1ccccc1
This is another data set of the same source.
Description: Inhibition of human caspase 2

Substrate in data set [5]: Cc1cccc(C)c1C(=O)OCC(=O)[C@H](CC(=O)O)NC(=O)[C@H](CCCCNC(=O)CCCCCNC(=O)CCCCC1SC[C@@H]2NC(=O)N[C@H]12)NC(=O)[C@H](CCC(=O)O)NC(=O)OCc1ccccc1
This is another data set of the same source.
Description: Inhibition of human caspase 8

Substrate in data set [6]: Cc1cccc(C)c1C(=O)OCC(=O)[C@H](CC(=O)O)NC(=O)[C@H](CCCCNC(=O)CCCCCNC(=O)CCCCC1SC[C@@H]2NC(=O)N[C@H]12)NC(=O)[C@H](CCC(=O)O)NC(=O)OCc1ccccc1
This is another data set of the same source.
Description: Inhibition of human caspase 4

Substrate in data set [7]: Cc1cccc(C)c1C(=O)OCC(=O)[C@H](CC(=O)O)NC(=O)[C@H](CCCCNC(=O)CCCCCNC(=O)CCCCC1SC[C@@H]2NC(=O)N[C@H]12)NC(=O)[C@H](CCC(=O)O)NC(=O)OCc1ccccc1
This is another data set of the same source.
Description: Inhibition of human caspase 5

Substrate in data set [8]: Cc1cccc(C)c1C(=O)OCC(=O)[C@H](CC(=O)O)NC(=O)[C@H](CCCCNC(=O)CCCCCNC(=O)CCCCC1SC[C@@H]2NC(=O)N[C@H]12)NC(=O)[C@H](CCC(=O)O)NC(=O)OCc1ccccc1
Description: Inhibition of human caspase 3
The source holds these as a separate data set.

B1: Caspase-7 (Homo sapiens), P55210 (protein)
chain: MADDQGCIEEQGVEDSANEDSVDAKPDRSSFVPSLFSKKKKNVTMRSIKTTRDRVPTYQYNMNFEKLGKCIIINNKNFDKVTGMGVRNGTDKDAEALFKCFRSLGFDVIVYNDCSCAKMQDLLKKASEEDHTNAACFACILLSHGEENVIYGKDGVTPIKDLTAHFRGDRCKTLLEKPKLFFIQACRGTELDDGIQADSGPINDTDANPRYKIPVEADFLFAYSTVPGYYSWRSPGRGSWFVQALCSILEEHGKDLEIMQILTRVNDRVARHFESQSDDPHFHEKKQIPCVVSMLTKELYFSQ
As to B1, in data set [1], the Km amounted to 230 µM.

B2: Caspase-6 (Homo sapiens), P55212 (protein)
chain: MSSASGLRRGHPAGGEENMTETDAFYKREMFDPAEKYKMDHRRRGIALIFNHERFFWHLTLPERRGTCADRDNLTRRFSDLGFEVKCFNDLKAEELLLKIHEVSTVSHADADCFVCVFLSHGEGNHIYAYDAKIEIQTLTGLFKGDKCHSLVGKPKIFIIQACRGNQHDVPVIPLDVVDNQTEKLDTNITEVDAASVYTLPAGADFLMCYSVAEGYYSHRETVNGSWYIQDLCEMLGKYGSSLEFTELLTLVNRKVSQRRVDFCKDPSAIGKKQVPCFASMLTKKLHFFPKSN
Regarding B2, the Km in data set [2] was 220 µM.

B3: Caspase-1 (Homo sapiens), P29466 (protein)
chain: MADKVLKEKRKLFIRSMGEGTINGLLDELLQTRVLNKEEMEKVKRENATVMDKTRALIDSVIPKGAQACQICITYICEEDSYLAGTLGLSADQTSGNYLNMQDSQGVLSSFPAPQAVQDNPAMPTSSGSEGNVKLCSLEEAQRIWKQKSAEIYPIMDKSSRTRLALIICNEEFDSIPRRTGAEVDITGMTMLLQNLGYSVDVKKNLTASDMTTELEAFAHRPEHKTSDSTFLVFMSHGIREGICGKKHSEQVPDILQLNAIFNMLNTKNCPSLKDKPKVIIIQACRGDSPGVVWFKDSVGVSGNLSLPTTEEFEDDAIKKAHIEKDFIAFCSSTPDNVSWRHPTMGSVFIGRLIEHMQEYACSCDVEEIFRKVRFSFEQPDGRAQMPTTERVTLTRCFYLFPGH
B3: the Km in data set [3] was found to be 100 µM.

B4: Caspase-2 (Homo sapiens), P42575 (protein)
chain: MAAPSAGSWSTFQHKELMAADRGRRILGVCGMHPHHQETLKKNRVVLAKQLLLSELLEHLLEKDIITLEMRELIQAKVGSFSQNVELLNLLPKRGPQAFDAFCEALRETKQGHLEDMLLTTLSGLQHVLPPLSCDYDLSLPFPVCESCPLYKKLRLSTDTVEHSLDNKDGPVCLQVKPCTPEFYQTHFQLAYRLQSRPRGLALVLSNVHFTGEKELEFRSGGDVDHSTLVTLFKLLGYDVHVLCDQTAQEMQEKLQNFAQLPAHRVTDSCIVALLSHGVEGAIYGVDGKLLQLQEVFQLFDNANCPSLQNKPKMFFIQACRGDETDRGVDQQDGKNHAGSPGCEESDAGKEKLPKMRLPTRSDMICGYACLKGTAAMRNTKRGSWYIEALAQVFSERACDMHVADMLVKVNALIKDREGYAPGTEFHRCKEMSEYCSTLCRHLYLFPGHPPT
B4: the Km in data set [4] worked out at 560 µM.

B5: Caspase-8 (Homo sapiens), Q14790 (protein)
chain: MDFSRNLYDIGEQLDSEDLASLKFLSLDYIPQRKQEPIKDALMLFQRLQEKRMLEESNLSFLKELLFRINRLDLLITYLNTRKEEMERELQTPGRAQISAYRVMLYQISEEVSRSELRSFKFLLQEEISKCKLDDDMNLLDIFIEMEKRVILGEGKLDILKRVCAQINKSLLKIINDYEEFSKERSSSLEGSPDEFSNGEELCGVMTISDSPREQDSESQTLDKVYQMKSKPRGYCLIINNHNFAKAREKVPKLHSIRDRNGTHLDAGALTTTFEELHFEIKPHDDCTVEQIYEILKIYQLMDHSNMDCFICCILSHGDKGIIYGTDGQEAPIYELTSQFTGLKCPSLAGKPKVFFIQACQGDNYQKGIPVETDSEEQPYLEMDLSSPQTRYIPDEADFLLGMATVNNCVSYRNPAEGTWYIQSLCQSLRERCPRGDDILTILTEVNYEVSNKDDKKNMGKQMPQPTFTLRKKLVFPSD
On to B5, for which the Km in data set [5] was determined as 140 µM.

B6: Caspase-4 (Homo sapiens), P49662 (protein)
chain: MAEGNHRKKPLKVLESLGKDFLTGVLDNLVEQNVLNWKEEEKKKYYDAKTEDKVRVMADSMQEKQRMAGQMLLQTFFNIDQISPNKKAHPNMEAGPPESGESTDALKLCPHEEFLRLCKERAEEIYPIKERNNRTRLALIICNTEFDHLPPRNGADFDITGMKELLEGLDYSVDVEENLTARDMESALRAFATRPEHKSSDSTFLVLMSHGILEGICGTVHDEKKPDVLLYDTIFQIFNNRNCLSLKDKPKVIIVQACRGANRGELWVRDSPASLEVASSQSSENLEEDAVYKTHVEKDFIAFCSSTPHNVSWRDSTMGSIFITQLITCFQKYSWCCHLEEVFRKVQQSFETPRAKAQMPTIERLSMTRYFYLFPGN
For B6, in data set [6], the Km was found to be 1100 µM.

B7: Caspase-5 (Homo sapiens), P51878 (protein)
chain: MAEDSGKKKRRKNFEAMFKGILQSGLDNFVINHMLKNNVAGQTSIQTLVPNTDQKSTSVKKDNHKKKTVKMLEYLGKDVLHGVFNYLAKHDVLTLKEEEKKKYYDTKIEDKALILVDSLRKNRVAHQMFTQTLLNMDQKITSVKPLLQIEAGPPESAESTNILKLCPREEFLRLCKKNHDEIYPIKKREDRRRLALIICNTKFDHLPARNGAHYDIVGMKRLLQGLGYTVVDEKNLTARDMESVLRAFAARPEHKSSDSTFLVLMSHGILEGICGTAHKKKKPDVLLYDTIFQIFNNRNCLSLKDKPKVIIVQACRGEKHGELWVRDSPASLALISSQSSENLEADSVCKIHEEKDFIAFCSSTPHNVSWRDRTRGSIFITELITCFQKYSCCCHLMEIFRKVQKSFEVPQAKAQMPTIERATLTRDFYLFPGN
Consider B7, for which the Km in data set [7] came to 2500 µM.

B8: Caspase-3 (Homo sapiens), P42574 (protein)
chain: MENTENSVDSKSIKNLEPKIIHGSESMDSGISLDNSYKMDYPEMGLCIIINNKNFHKSTGMTSRSGTDVDAANLRETFRNLKYEVRNKNDLTREEIVELMRDVSKEDHSKRSSFVCVLLSHGEEGIIFGTNGPVDLKKITNFFRGDRCRSLTGKPKLFIIQACRGTELDCGIETDSGVDDDMACHKIPVEADFLYAYSTAPGYYSWRNSKDGSWFIQSLCAMLKQYADKLEFMHILTRVNRKVATEFESFSFDATFHAKKQIPCIVSMLTKELYFYH
On to B8, for which the Km in data set [8] came out at 74 µM.
